{
  "source": "paper PMC4939424",
  "about": "(2016)",
  "molecular_target": "Actin filaments (F-actin) polymerized in vitro from rabbit skeletal muscle actin (Oryctolagus cuniculus (Rabbit), UniProt P68135)",
  "assay": "F-actin co-sedimentation (pelleting)",
  "data": [
    {"binder": "GST-fused PI3KAP/XB130 fragment, GST-del1 without the C-terminal 70 amino acids (GST-del2) (protein) LPSRDCQDDLYDDVEVSELIAVVEPAEEAAPAVDANSGSEPDRVYLDLTPVKSFLHSSSEAQAQASLPAVPHQDDVAETLTVDPKPGTTPEEPHTESPGDPEVQQRQPEVQESSEPIEPTPRITMVKLQAEQQRISFPANCPDTMASAPIAASPPVKEKLRVTSAEIKLGKNRTEAEVKRYTEEKERLERSKEEIRGHLAQLRREKRELKETLLRCTDKGVLAKLEQTLKKIDEECRMEESRRVDLELSIMEVKDNLKKAEAG", "values": [
      {"measurement": "binding result", "result": "no binding"}
    ]},
    {"binder": "GST-fused PI3KAP/XB130 C-terminal fragment, amino acid residues 511-843 (GST-del1) (protein) LPSRDCQDDLYDDVEVSELIAVVEPAEEAAPAVDANSGSEPDRVYLDLTPVKSFLHSSSEAQAQASLPAVPHQDDVAETLTVDPKPGTTPEEPHTESPGDPEVQQRQPEVQESSEPIEPTPRITMVKLQAEQQRISFPANCPDTMASAPIAASPPVKEKLRVTSAEIKLGKNRTEAEVKRYTEEKERLERSKEEIRGHLAQLRREKRELKETLLRCTDKGVLAKLEQTLKKIDEECRMEESRRVDLELSIMEVKDNLKKAEAGPVTLGTTVDTTHLDNMSPRPQPKAATPNPPPDSTPVNSASVLKNRPLSVMVTGKGTVLQKAKEWEKKGAS", "values": [
      {"measurement": "binding result", "result": "binds"}
    ]},
    {"binder": "GST-fused C-terminal 70 amino acid residues of PI3KAP/XB130 (GST-del3) (protein) PVTLGTTVDTTHLDNMSPRPQPKAATPNPPPDSTPVNSASVLKNRPLSVMVTGKGTVLQKAKEWEKKGAS", "values": [
      {"measurement": "binding result", "result": "binds"}
    ]}
  ]
}
